How the values were obtained:
[1] = target: FH-AGO2 (Flag-HA-tagged wild type AGO2 expressed in MCF-7 cells) (UniProt Q9UKV8)
FH-AGO2-K726R = FH-AGO2-K726R (UniProt Q9UKV8)
FH-AGO2-K726R, sequence (Q9UKV8 whole entry K726R): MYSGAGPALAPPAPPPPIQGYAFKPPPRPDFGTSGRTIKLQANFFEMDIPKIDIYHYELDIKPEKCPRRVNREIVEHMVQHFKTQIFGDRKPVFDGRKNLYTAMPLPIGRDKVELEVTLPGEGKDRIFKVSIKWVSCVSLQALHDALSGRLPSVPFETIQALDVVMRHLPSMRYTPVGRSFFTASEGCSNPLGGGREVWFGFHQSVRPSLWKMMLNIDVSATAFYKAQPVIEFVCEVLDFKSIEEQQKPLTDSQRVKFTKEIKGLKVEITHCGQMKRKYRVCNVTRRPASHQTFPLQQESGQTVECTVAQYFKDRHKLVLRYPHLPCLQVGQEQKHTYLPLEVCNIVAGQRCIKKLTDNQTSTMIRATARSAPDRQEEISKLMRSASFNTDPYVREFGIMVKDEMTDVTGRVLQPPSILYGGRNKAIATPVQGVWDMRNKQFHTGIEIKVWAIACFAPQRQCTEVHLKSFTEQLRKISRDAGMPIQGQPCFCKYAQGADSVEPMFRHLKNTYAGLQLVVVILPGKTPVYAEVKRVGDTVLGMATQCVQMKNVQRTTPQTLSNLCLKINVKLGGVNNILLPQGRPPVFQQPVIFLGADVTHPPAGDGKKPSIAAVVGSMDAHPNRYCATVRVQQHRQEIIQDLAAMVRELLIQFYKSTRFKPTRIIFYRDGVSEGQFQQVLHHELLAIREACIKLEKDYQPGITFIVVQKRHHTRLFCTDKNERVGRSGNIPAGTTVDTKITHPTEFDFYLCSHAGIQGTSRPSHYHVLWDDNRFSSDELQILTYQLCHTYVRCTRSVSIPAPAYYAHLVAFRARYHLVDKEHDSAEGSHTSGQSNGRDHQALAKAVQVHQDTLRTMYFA

FH-AGO2 (Flag-HA-tagged wild type AGO2 expressed in MCF-7 cells), sequence (Q9UKV8 whole entry): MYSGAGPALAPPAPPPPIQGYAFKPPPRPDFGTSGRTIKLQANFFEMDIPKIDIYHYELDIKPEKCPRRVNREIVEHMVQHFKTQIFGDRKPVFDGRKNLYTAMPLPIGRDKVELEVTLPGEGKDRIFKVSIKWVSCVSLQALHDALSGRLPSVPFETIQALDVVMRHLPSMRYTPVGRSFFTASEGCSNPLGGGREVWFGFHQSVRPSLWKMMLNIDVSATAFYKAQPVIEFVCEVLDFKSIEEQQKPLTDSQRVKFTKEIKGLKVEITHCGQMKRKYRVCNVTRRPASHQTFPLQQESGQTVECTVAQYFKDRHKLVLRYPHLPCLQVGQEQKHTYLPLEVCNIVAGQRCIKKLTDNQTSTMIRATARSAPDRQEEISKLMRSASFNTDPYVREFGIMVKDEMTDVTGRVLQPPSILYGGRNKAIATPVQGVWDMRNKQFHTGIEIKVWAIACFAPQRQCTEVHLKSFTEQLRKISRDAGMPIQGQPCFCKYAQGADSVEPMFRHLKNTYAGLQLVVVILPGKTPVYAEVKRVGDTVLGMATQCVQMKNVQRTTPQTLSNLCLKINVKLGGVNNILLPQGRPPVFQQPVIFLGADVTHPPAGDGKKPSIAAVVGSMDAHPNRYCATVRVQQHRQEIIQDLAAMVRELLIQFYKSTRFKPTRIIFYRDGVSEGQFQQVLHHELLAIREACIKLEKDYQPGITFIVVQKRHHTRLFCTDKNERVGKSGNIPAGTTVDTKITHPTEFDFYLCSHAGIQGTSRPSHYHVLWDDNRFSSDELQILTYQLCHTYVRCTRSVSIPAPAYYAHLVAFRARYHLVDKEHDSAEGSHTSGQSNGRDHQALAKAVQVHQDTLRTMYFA

Row | Substance | K726me1 level on FH-AGO2 in in vitro demethylation assay (immunoblot) [1] | K726me1 level in in vitro demethylation assay (immunoblot) (FH-AGO2-K726R)
1 | FH-LSD1 (Flag-HA-tagged wild type LSD1 expressed in MCF-7 cells) | FH-LSD1 but not FH-LSD1-K661A decreased K726mel level on FH-AGO2 | had no observable effects on FH-AGO2-K726R
2 | FH-LSD1-K661A (catalytically compromised LSD1) | FH-LSD1 but not FH-LSD1-K661A decreased K726mel level on FH-AGO2 | –

— patent publication US20240018242
